{
  "source": "patent US6808930B1",
  "about": "“Therapeutic agents” (priority 1997, dated 2004)",
  "molecules": {"B1": {"name": "MAL: protein complex from human milk casein containing oligomeric forms of α-lactalbumin; the apoptosis-inducing fraction (protein, UniProt P00709 20-142, looked up)", "Alpha-lactalbumin": "KQFTKCELSQLLKDIDGYGGIALPELICTMFHTSGYDTQAIVENNESTEYGLFQISNKLWCKSSQVPQSRNICDISCDKFLDDDITDDIMCAKKILDIKGIDYWLAHKALCTEKLEQWLCEKL", "modifications": "oligomeric form from milk casein", "notes": "protein complex from human milk casein containing oligomeric forms of α-lactalbumin; the apoptosis-inducing fraction"}},
  "key": {"[1]": {"test_system": "HRTEC cells", "test": "Cell surface binding of biotinylated protein, flow cytometry", "parameters": "species or system human", "conditions": "biotinylated MAL, 30 min; third of three cell types (HRTEC by order)", "experimental": "(§1) MAL, human α-lactalbumin (HLA) and immunoglobulin G were biotinylated according to the manufacturer's instructions or labelled with ^125I with the lactoperoxidase method. Proteins were dissolved in PBSA-T buffer (30 mM Na2HPO4, 120 mM NaCl, pH 7.4, with 0.1% NaAzid, 0.05% Tween-20) and 25 μl of protein (25 μg) was incubated with 2 μl of ^125([…]), 2 μl of lactoperoxidase (2.5 mg/ml) and 2 μl of H2O2 (diluted 1:2000 in PBS) for 2 min at room temperature. The reaction was stopped by the addition of 500 μl of PBSA-T. The labelled protein was purified on a PD-10 column. 500 μl fractions in PBSA-T were eluted and fractions containing radioactivity were stored at […]. […] L1210, A549 and HRTEC cells (3×10^6 cells/ml, 50 μl) were incubated in suspension with 50 μl of biotinylated MAL, ALA or BSA for various times at 37° C. The cells were washed with PBS by centrifugation at 320×g for 10 min and the supernatant was discarded. FITC-conjugated streptavidin (diluted 1:50 in PBS) was added and the cells were incubated for 30 min at room temperature. The cells were washed by centrifugation as above, suspended in 300 μl PBS and the surface fluorescence was analysed by flow cytometry on a Coulter Epics Profile II flow cytometer (Coulter Inc.), equipped with a 488 nm argon laser. Green fluorescence was detected with a 525 nm band pass filter. […]"}, "[2]": {"test_system": "A549 cells", "test": "Cell surface binding of biotinylated protein, flow cytometry", "parameters": "species or system human", "conditions": "biotinylated MAL, 30 min; second of three cell types (A549 by order)", "experimental": "as §1"}, "[3]": {"test_system": "HRTEC cells", "test": "Subcellular fractionation of cells exposed to 125I-labelled protein", "assay_type": "cell-based, human", "experimental": "(§2) The intracellular distribution of MAL was further analysed in cells exposed to ^125I-labelled MAL with ^[…] α-lactalbumin and IgG as controls (FIG. 4). Subcellular fractions were prepared after mechanic disruption of the cells and the amount of radiolabelled MAL in each fraction was determined in relation to the total cell-associated radioactivity measured prior to disruption of the cells. Fraction P1 contained mostly cell nuclei, P2 contained plasma-Golgi-, ER-membranes and mitochondria, P3 contained small vesicles and the supernatant. Fraction S contained the cytosolic proteins. The purity of the fractions was determined by quantitation of specific markers (DNA, alkaline phosphatase, RNA and catalase).\n(§3) Specifically, cellular subfractionation was performed as described (J. Graham., Isolation of subcellular organelles and membranes., p161-1019. In D. Rickwood ed., Centrifugation, a practical approach, 2nd ed. IRL Press, Washington D.C.). L1210, A549 or HRTEC cells in suspension (3×10^6 cells/ml, 100 μla were incubated with 1×10^6 cpr of ^125I-labelled MAL, ALA or IgG for various times at 37° C. The cells were washed three times with ice-cold PBS and the supernatants were discarded. The cells were suspended in 500 μl of homogenisation buffer (10 mM Tris-HCl, pH 7.8, 5 mM MgCl2 and 2 mM CaCl2 for L1210 cells and 0.15M NaCl, 2 mM EDTA, pH 7.5 for A549 cells), and homogenised by 50 strokes in a Dounce homogenizer (Thomas, Philadelphia, USA) with pestle size 415. Sucrose was added to a final concentration of […] and the homogenate was centrifuged at 100×g for 25 min at RT. The first pellet contained nuclei, large mitochondria and large sheets of plasma membrane. The remaining supernatant was further centrifuged at 12 000×g for 30 min at 4° C. resulting in a second pellet containing mitochondria endoplasmic reticulum, plasma membrane and cytoplasmic organelles. The supernatant was finally centrifuged at 150,000×g for 2 h at 4° C. resulting in a pellet containing small vesicles, endoplasmic reticulum and a supernatant containing cytosolic proteins."}, "[4]": {"test_system": "L1210 cells", "test": "Nuclear uptake of biotinylated protein, confocal microscopy", "assay_type": "cell-based, murine", "experimental": "To detect intracellular protein, the cells were fixed at various times after addition of 0.3 mg/ml of biotinylated MAL for 5 min in phosphate-buffered paraformaldehyde (4%) (B. Sander et al., Immunol. Rev. (1991) 119: 65-92) at room temperature, washed in PBS, and permeabilized with 0.1% saponin in PBS. FITC conjugated streptavidin (diluted 1:100 in 0.1% saponin) was added and the cells were incubated for 30 min at room temperature. The cells were washed twice in PBS-saponin and once in PBS, mounted on a glass slide and analysed in a Bio-Rad 1024 laser scanning confocal equipment (Bio Rad Laboratories, Hemel-Hempstead, UK) attached to a Nikon Diaphot inverted microscope."}, "[5]": {"test_system": "L1210, A549 and HRTEC nuclei", "test": "DNA fragmentation in isolated nuclei", "assay_type": "cell-based", "experimental": "Nuclei were purified from L1210, A549 and HRTEC cells and incubated with low concentrations of MAL (0.2 and 0.4 mg/ml). The formation of HMW and oligonucleosome length DNA fragments was examined.\nA549, L1210 and HRTEC nuclei were isolated from homogenised cells. Pellet 1 from the homogenisation was washed twice in nuclei buffer for 20 min at 100×g and suspended in nuclei buffer for experiments. Rat liver nuclei was isolated.\nA549, L1210 or HRTEC nuclei in suspension were placed in individual wells in a 24-well plate ([…]), mixed with MAL, α-lactalbumin, lactoferrin or BSA (100 μl in nucleus buffer), incubated at 37° C. for 1 hour (L1210,) or 2 hours (A549 and HRTEC), harvested by aspiration, analysed for DNA fragmentation as described above."}, "[6]": {"test_system": "L1210 cells", "test": "Subcellular fractionation of cells exposed to 125I-labelled protein", "assay_type": "cell-based, murine", "experimental": "as §2, §3"}, "[7]": {"conditions": "isolated nuclei from the three cell types, 0.2 and 0.4 mg/ml"}},
  "data": [
    {"molecule": "B1", "values": [
      {"measurement": "fluorescence intensity of cell surface binding", "setting": "[1]", "result": "8.5 times that of the streptavidin control"},
      {"measurement": "fluorescence intensity of cell surface binding", "setting": "[2]", "result": "13.4 times that of the streptavidin control"},
      {"measurement": "share of total cell associated radioactivity in nuclear fraction (P1)", "setting": "[3]; 24 h, 125I-labelled", "result": 16, "unit": "%"},
      {"measurement": "total cell associated radioactivity", "setting": "[3]; 24 h, denominator in brackets", "result": 14000},
      {"measurement": "radioactivity in nuclear fraction (P1)", "setting": "[3]; 24 h, numerator in brackets", "result": 2200},
      {"measurement": "radioactivity in cytosolic fraction", "setting": "[3]; final time-point", "result": 8600, "unit": "cpm"},
      {"measurement": "radioactivity in pellet 2", "setting": "[3]; final time-point", "result": 2100, "unit": "cpm"},
      {"measurement": "radioactivity in pellet 3", "setting": "[3]; final time-point", "result": 1100, "unit": "cpm"},
      {"measurement": "share of radioactivity in cytosolic fraction", "setting": "[3]; final time-point", "result": 61, "unit": "%"},
      {"measurement": "share of radioactivity in pellet 2", "setting": "[3]; final time-point", "result": 15, "unit": "%"},
      {"measurement": "share of radioactivity in pellet 3", "setting": "[3]; final time-point", "result": 8, "unit": "%"},
      {"measurement": "cells with nuclear staining", "setting": "[4]; 0.3 mg/ml biotinylated protein, after about 2 hours (first detected)", "result": "about 10%"},
      {"measurement": "cells with nuclear staining", "setting": "[4]; 0.3 mg/ml, after 1 hour", "result": 10, "unit": "%"},
      {"measurement": "cytoplasmic staining", "setting": "[4]; biotinylated MAL", "result": "Cytoplasmic staining was not observed"},
      {"measurement": "induction of DNA fragmentation in isolated nuclei", "setting": "[5]; isolated nuclei", "result": "could induce DNA fragmentation"},
      {"measurement": "time after which formation of HMW DNA fragments was enhanced", "setting": "[5]; [7]", "result": "one"},
      {"measurement": "time after which formation of oligonucleosome length fragments was enhanced", "setting": "[5]; [7]", "result": 2, "unit": "h"},
      {"measurement": "share of total cell associated radioactivity in nuclear fraction (P1)", "setting": "[6]; 6 h, 125I-labelled", "result": "about 78%"},
      {"measurement": "total cell associated radioactivity", "setting": "[6]; 6 h, 125I-labelled, denominator in brackets", "result": 44000},
      {"measurement": "radioactivity in nuclear fraction (P1)", "setting": "[6]; 6 h, 125I-labelled, numerator in brackets", "result": 34200},
      {"measurement": "radioactivity in cytosolic fraction", "setting": "[6]; final time-point", "result": 4500, "unit": "cpm"},
      {"measurement": "radioactivity in pellet 2", "setting": "[6]; final time-point", "result": 4500, "unit": "cpm"},
      {"measurement": "radioactivity in pellet 3", "setting": "[6]; final time-point", "result": 800, "unit": "cpm"},
      {"measurement": "share of radioactivity in cytosolic fraction", "setting": "[6]; final time-point", "result": 10, "unit": "%"},
      {"measurement": "share of radioactivity in pellet 2", "setting": "[6]; final time-point", "result": 10, "unit": "%"},
      {"measurement": "share of radioactivity in pellet 3", "setting": "[6]; final time-point", "result": 2, "unit": "%"}
    ]}
  ]
}
